# Laboratory results as given in the supplement of paper PMC9170038.
# Legend:
# MS2 coat protein [1] = test: apparent KD of MS2 coat protein; higher = weaker reporter binding; details: Eterna round: R101
# Experimental: (§1)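 RNA-MaP: designed FMN/MS2 RNA switches (84 nt design region) are transcribed on-chip within common flanks and titrated with SNAP-549-labelled MS2 coat protein (about 1-3000 nM) in 100 mM Tris pH 7.5, 80 mM KCl, 4 mM MgCl2, without or with 200 uM FMN. Median apparent KD per design; activation ratio = KD,OFF / KD,ON.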
# MS2 coat protein [2] = test: apparent KD of MS2 coat protein; designed switch direction (-1 OFF switch, 1 ON switch): 1; higher = weaker reporter binding; details: Eterna round: R98
# Experimental: as §1
Sequence,apparent KD of MS2 coat protein (MS2 coat protein [1]; input ligand: FMN 200 uM) [µM],apparent KD of MS2 coat protein (MS2 coat protein [1]; input ligand: none) [µM],apparent KD of MS2 coat protein (MS2 coat protein [2]; input ligand: FMN 200 uM) [µM],apparent KD of MS2 coat protein (MS2 coat protein [2]; input ligand: none) [µM]
AAAGAUUUUCAAGGAUAUCAGUGGCAAAGCCACUGAGAAGGUGAGGAUCACCCACCUACGUGACGCUGGAAACAGCGUCACGAA [#SharedSequence ExNG1 - 26] (puzzle (switch architecture): Exclusion NG 1),0.0645,0.021,–,–
CUUAGUUUGUAGAAGGGUGACAUGAGGAUCACCCAUGUGCGUCGCCUGAAAGACCAGGGUACGCCACAGGAUAUACAAAGUAAG [Ororzati] (puzzle (switch architecture): Inverted Same State NG 2),0.0882,0.058,–,–
GCAGAAGGUGCGGAGGAUCACCCUGUAAGGAUAUGCAUUAGCAAGGAUAUACAGAGGAUCACCCUGUAGAAGGUGCACUAUUCU [pwkr2 ssNG3 DX.4],–,–,1.23,1.45
AAUAAACAAUAAAAGAGUCCACGAAACUUUUGAGGAUCACCCAGAAGGGCUGAGGUAAUACCUCAGCAGGAUAUGGACGUGGAC [#SharedSequence IExNG# - 3] (puzzle (switch architecture): Inverted Exclusion NG 3),0.0868,0.0124,–,–
AAAACAUGAGGAUCACCCAUGUAAAGAUCGGUUAAUAGAAGUGAGGAUAUACUAAAUUUUAGGUAGUAGAAGGCACUGGGUACA [JR_SSNG3_Sub034],–,–,0.0281,0.0231
GUGCGAGCCACAGGAUAUCUACAGAUUUUUUGUAGAGAAGGGUGACCUCGUGCACCACAUGAGGAUCACCCAUGUAACUAGGCG [Bianeren],–,–,0.0245,0.0821
UCAGUAGAGUCAGGAUAUACAAAAGGCGGUCCAUACAUGAGGAUCACCCAUGUAGAAGGGACUCUACUGUAAGUCGGAAACGAC [#StaticStemDeletion - Eli x2 4.005] (puzzle (switch architecture): Small Loop Exclusion NG 1),0.0156,0.329,–,–
AGACCUGCUCAGAAGGCGUGUGCGAGGCUGGAAACAGCCUCGAAUUAAAAUCUUCGAGGAUCACCCGAGGAUAUGAGCAGGUCA [#SharedSequence - IExNG2: 20] (puzzle (switch architecture): Inverted Exclusion NG 2),0.0597,0.0113,–,–
ACUUUAUUUGAGAAGGUGAAGUGGAAACAUGAGGAUCACCCAUGUAAUACGAAGCGUAUUUUUAUCAAGGAUAUCAAAUAAAGA [WHB=ISS-NG2-MS2FAR3 #bad] (puzzle (switch architecture): Inverted Same State NG 2),0.00758,0.0107,–,–
GGAGACCUCACAGGAUAUGCUGGACUUUGUCCAGCAGAAGGGUGAACAUGAGGAUCACCCAUGUAAAUGGUCUCCAAAUUUAAU [Denovo 55],–,–,0.0334,0.389
UAUUAAAGGUGAGGAUAUGCACAGGAUCACCGUGUAGAAGGCAUCAGGUAGAAGGUGCAGAGGAUCACCCUGUAAGGAUAUAUC [pwkr2 ssNG1 DX.10],–,–,0.191,1.08
AAAUAAAUCGAAGGAUAUCAGGGUGCACCUCAGUAAAACUGAGGUGCACCCUGAGAAGGUCGAGGAUCACCCGAUCUAAAUAAA [#SharedSequence SLExNG1: 2-2] (puzzle (switch architecture): Small Loop Exclusion NG 1),0.114,0.0193,–,–
AAAUAAAAUAUAGGAUAUGGAAACAUGAGGAUCACCCAUGUAAAAUAAGAUAAAUAAUAAUAUAGCCAGAAGGAUAAAAUAUAA [LRO004_SS NG 2],–,–,0.0345,0.0276
AAUAAAACUCAAGGAUAUGACUCCGAAACGGAGUCAGAAGGUGAGGAUCACCCACCUAGCUCAGCGUCGAAAGACGCUGAGCAA [#SharedSequence ExNG1 - 32] (puzzle (switch architecture): Exclusion NG 1),0.042,0.00901,–,–
GUAGCUAUCGGAGGAUAUUCAUACCGGAAACGGACAUGAGGAUCACCCAUGUGGCGAAAGCCUUGGGAGAAGGCCGAUAGCUAC [#DoubleMagnetSystem - jl-sng2-2.23 Eli mod] (puzzle (switch architecture): Same State NG 2),0.00749,0.215,–,–
GUGCCUUGGGAGAAGGAUAAUUAAUAAUAAAUAAAAGGAUAUUCAUACCGGAAACGGACAUGAGGAUCACCCAUGUGGCACAAA (puzzle (switch architecture): Inverted Same State NG 1),0.0454,0.186,–,–
